Patent US20190204338A1 (PHYLOGICA, published 2019)
Where no end group is shown, it is not given here. His tag = polyhistidine tag from vector pDEST-HisMBP; MBP = not defined here

How the values were obtained:
[1] = target: T1, MBP-MAP4K4-CNH (biotinylated, immobilised) (human, UniProt P0AEX9 27-392 = MBP; O95819 926-1213, limits assumed, biotinylated (site not given)); test: BLI (Octet-RED), titration, compared with MBP-RAP2A in the same system
T1 construct: 45 ug/ml on streptavidin biosensors; also called CNH domain of MAP4K4; biotinylated MAP4K4-CNH
Method: (§1) Data were acquired with the Data Acquisition software version 6.2 and all steps/dilutions were performed in baseline buffer (PBS pH 8.0) at a rotation rate of 1000 rpm.

[2] = target: T1, MBP-MAP4K4-CNH (biotinylated, …); test: BLI (Octet-RED), titration 100-1000 nM, global 1:1 fit, immobilised biotinylated MAP4K4-CNH
Method: as §1

[3] = target: T1, MBP-MAP4K4-CNH (biotinylated, …); test: BLI (Octet-RED), single concentration 1 uM, local 1:1 fit, immobilised biotinylated MAP4K4-CNH
Method: as §1

B1: MBP-25C3 (Phylomer 25C3 expressed as a His-MBP tagged fusion) (peptide)
chain: {His tag-MBP}-LGAAGPTHYDHLDCAR
modifications: reading uncertain; also: linker between MBP and peptide not given here
notes: Purified as monomeric protein; also called 25C3 fusion peptide; not shown: His tag of vector pDEST-HisMBP
With B1 the “fold lower binding affinity than RAP2A” value [1] was 5 fold, the Kd [2] was 28 nM and the koff [2] was 0.0001 s⁻¹. For the same binder, the Kd [3] was 23.5 nM and the koff [3] was 4.4e-05 s⁻¹.
